Measured values from patent publication US20200249231.

What was measured:
[1] = target: T1, RFSQR (5-mer on peptide array)
T1 chain: RFSQR

[2] = target: T2, EYVAQ (5-mer on peptide array)
T2 chain: EYVAQ

Z-[GGGDYALQGGGG] = target: T3, Z-[GGGDYALQGGGG]
T3 chain: GGGDYALQGGGG

[3] = target: T4, FRQRQ (5-mer on peptide array)
T4 chain: FRQRQ

[4] = target: T5, YRQTR (5-mer on peptide array)
T5 chain: YRQTR

[5] = target: T6, WQRQR (5-mer on peptide array)
T6 chain: WQRQR

[6] = target: T7, DYVAQ (5-mer on peptide array)
T7 chain: DYVAQ

[7] = target: T8, YRQRA (5-mer on peptide array)
T8 chain: YRQRA

[8] = target: T9, RYSQR (5-mer on peptide array)
T9 chain: RYSQR

[9] = target: T10, RYTQR (5-mer on peptide array)
T10 chain: RYTQR

[10] = target: T11, EWIAQ (5-mer on peptide array)
T11 chain: EWIAQ

[11] = target: T12, DYWLQ (5-mer on peptide array)
T12 chain: DYWLQ

[12] = target: T13, LRYRQ (5-mer on peptide array)
T13 chain: LRYRQ

[13] = target: T14, EYFLQ (5-mer on peptide array)
T14 chain: EYFLQ

Z-[GGGYRYRQGGGG] = target: T15, Z-[GGGYRYRQGGGG]
T15 chain: GGGYRYRQGGGG

[14] = target: T16, EWALQ (5-mer on peptide array)
T16 chain: EWALQ

[15] = target: T17, QRQRQ (5-mer on peptide array)
T17 chain: QRQRQ

[16] = target: T18, YKYRQ (5-mer on peptide array)
T18 chain: YKYRQ

[17] = target: T19, EYWLQ (5-mer on peptide array)
T19 chain: EYWLQ

[18] = target: T20, DYALQ (5-mer on peptide array)
T20 chain: DYALQ

[19] = target: T21, AYRQR (5-mer on peptide array)
T21 chain: AYRQR

[20] = target: T22, PRYRQ (5-mer on peptide array)
T22 chain: PRYRQ

[21] = target: T23, WYALQ (5-mer on peptide array)
T23 chain: WYALQ

[22] = target: T24, RYRQR (5-mer on peptide array)
T24 chain: RYRQR

[23] = target: T25, DWVAQ (5-mer on peptide array)
T25 chain: DWVAQ

[24] = target: T26, RQRQR (5-mer on peptide array)
T26 chain: RQRQR

[25] = target: T27, YRYRQ (5-mer on peptide array)
T27 chain: YRYRQ

[26] = target: T28, YQRQR (5-mer on peptide array)
T28 chain: YQRQR

[27] = target: T29, VRQRQ (5-mer on peptide array)
T29 chain: VRQRQ

[28] = target: T30, VRYRQ (5-mer on peptide array)
T30 chain: VRYRQ

[29] = target: T31, EWVAQ (5-mer on peptide array)
T31 chain: EWVAQ

[30] = target: T32, YRQSR (5-mer on peptide array)
T32 chain: YRQSR

[31] = target: T33, DYFLQ (5-mer on peptide array)
T33 chain: DYFLQ

[32] = target: T34, QYRQR (5-mer on peptide array)
T34 chain: QYRQR

[33] = target: T35, DWYLQ (5-mer on peptide array)
T35 chain: DWYLQ

[34] = target: T36, FRQRG (5-mer on peptide array)
T36 chain: FRQRG

[35] = target: T37, DWALQ (5-mer on peptide array)
T37 chain: DWALQ

[36] = target: T38, EYVLQ (5-mer on peptide array)
T38 chain: EYVLQ

[37] = target: T39, QRQTR (5-mer on peptide array)
T39 chain: QRQTR

[38] = target: T40, EYALQ (5-mer on peptide array)
T40 chain: EYALQ

B1: Streptomyces mobaraensis microbial transglutaminase (protein)
chain: DSDDRVTPPAEPLDRMPDPYRPSYGRAETVVNNYIRKWQQVYSHRDGRKQQMTEEQREWLSYGCVGVTWVNSGQYPTNRLAFASFDEDRFKNELKNGRPRSGETRAEFEGRVAKESFDEEKGFQRAREVASVMNRALENAHDESAYLDNLKKELANGNDALRNEDARSPFYSALRNTPSFKERNGGNHDPSRMKAVIYSKHFWSGQDRSSSADKRKYGDPDAFRPAPGTGLVDMSRDRNIPRSPTSPGEGFVNFDYGWFGAQTEADADKTVWTHGNHYHAPNGSLGAMHVYESKFRNWSEGYSDFDRGAYVITFIPKSWNTAPDKVKQGWP
[1]
  5-mer peptide array signal with MTG: found in the mid-field of the signal distribution on the array performed with MTG
[2]
  5-mer peptide array, incorporation of N-(biotinyl)cadaverine: The 16 glutamine-donor substrates identified with MTG
Z-[GGGDYALQGGGG]
  KM: 847 µM
  Vmax: 36.7 pmol/s
  kcat: 1.39 s⁻¹
  kcat/KM: 1640 M⁻¹ s⁻¹
[3]
  5-mer peptide array signal with MTG: found in the mid-field of the signal distribution on the array performed with MTG
[4]
  5-mer peptide array signal with MTG: found in the mid-field of the signal distribution on the array performed with MTG
[5]
  5-mer peptide array signal with MTG: found in the mid-field of the signal distribution on the array performed with MTG
[6]
  5-mer peptide array, incorporation of N-(biotinyl)cadaverine: The 16 glutamine-donor substrates identified with MTG
[7]
  5-mer peptide array signal with MTG: found in the mid-field of the signal distribution on the array performed with MTG
[8]
  5-mer peptide array signal with MTG: found in the mid-field of the signal distribution on the array performed with MTG
[9]
  5-mer peptide array signal with MTG: found in the mid-field of the signal distribution on the array performed with MTG
[10]
  5-mer peptide array, incorporation of N-(biotinyl)cadaverine: The 16 glutamine-donor substrates identified with MTG
[11]
  5-mer peptide array, incorporation of N-(biotinyl)cadaverine: The 16 glutamine-donor substrates identified with MTG
[12]
  5-mer peptide array signal with MTG: found in the mid-field of the signal distribution on the array performed with MTG
[13]
  5-mer peptide array, incorporation of N-(biotinyl)cadaverine: The 16 glutamine-donor substrates identified with MTG
Z-[GGGYRYRQGGGG]
  KM: 644 µM
  Vmax: 21.5 pmol/s
  kcat: 0.93 s⁻¹
  kcat/KM: 1440 M⁻¹ s⁻¹
[14]
  5-mer peptide array, incorporation of N-(biotinyl)cadaverine: The 16 glutamine-donor substrates identified with MTG
[15]
  5-mer peptide array signal with MTG: found in the mid-field of the signal distribution on the array performed with MTG
[16]
  5-mer peptide array signal with MTG: found in the mid-field of the signal distribution on the array performed with MTG
[17]
  5-mer peptide array, incorporation of N-(biotinyl)cadaverine: The 16 glutamine-donor substrates identified with MTG
[18]
  5-mer peptide array, incorporation of N-(biotinyl)cadaverine: The 16 glutamine-donor substrates identified with MTG
[19]
  5-mer peptide array signal with MTG: found in the mid-field of the signal distribution on the array performed with MTG
[20]
  5-mer peptide array signal with MTG: found in the mid-field of the signal distribution on the array performed with MTG
[21]
  5-mer peptide array, incorporation of N-(biotinyl)cadaverine: The 16 glutamine-donor substrates identified with MTG
[22]
  5-mer peptide array signal with MTG: found in the mid-field of the signal distribution on the array performed with MTG
[23]
  5-mer peptide array, incorporation of N-(biotinyl)cadaverine: The 16 glutamine-donor substrates identified with MTG
[24]
  5-mer peptide array signal with MTG: found in the mid-field of the signal distribution on the array performed with MTG
[25]
  5-mer peptide array signal with MTG: found in the mid-field of the signal distribution on the array performed with MTG
[26]
  5-mer peptide array signal with MTG: found in the mid-field of the signal distribution on the array performed with MTG
[27]
  5-mer peptide array signal with MTG: found in the mid-field of the signal distribution on the array performed with MTG
[28]
  5-mer peptide array signal with MTG: found in the mid-field of the signal distribution on the array performed with MTG
[29]
  5-mer peptide array, incorporation of N-(biotinyl)cadaverine: The 16 glutamine-donor substrates identified with MTG
[30]
  5-mer peptide array signal with MTG: found in the mid-field of the signal distribution on the array performed with MTG
[31]
  5-mer peptide array, incorporation of N-(biotinyl)cadaverine: The 16 glutamine-donor substrates identified with MTG
[32]
  5-mer peptide array signal with MTG: found in the mid-field of the signal distribution on the array performed with MTG
[33]
  5-mer peptide array, incorporation of N-(biotinyl)cadaverine: The 16 glutamine-donor substrates identified with MTG
[34]
  5-mer peptide array signal with MTG: found in the mid-field of the signal distribution on the array performed with MTG
[35]
  5-mer peptide array, incorporation of N-(biotinyl)cadaverine: The 16 glutamine-donor substrates identified with MTG
[36]
  5-mer peptide array, incorporation of N-(biotinyl)cadaverine: The 16 glutamine-donor substrates identified with MTG
[37]
  5-mer peptide array signal with MTG: found in the mid-field of the signal distribution on the array performed with MTG
[38]
  5-mer peptide array, incorporation of N-(biotinyl)cadaverine: The 16 glutamine-donor substrates identified with MTG
